Like-named read-outs stand apart in the source and are kept apart here.
How the values were obtained:
[1] = target: human CD64 (human FcγRI) (human) (UniProt P12314); assay: SPR
[2] = target: cynomolgus FcRn (cynomolgus) (UniProt Q8SPV9); assay: SPR
[3] = target: human CD32b (human FcγRIIB) (human) (UniProt P31994); assay: SPR
[4] = target: human CD32a (human FcγRIIA) (human) (UniProt P12318); assay: SPR
[5] = target: cynomolgus CD32a (cynomolgus) (UniProt Q8SPW4); assay: SPR
[6] = target: human CD16a (human FcγRIIIA), F isoform (human) (UniProt P08637); assay: SPR
[7] = target: cynomolgus CD32b (cynomolgus) (UniProt Q8SPW3); assay: SPR
[8] = target: cynomolgus CD16 (cynomolgus) (UniProt Q8SPW2); assay: SPR
[9] = target: human CD16b (human FcγRIIIB) (human) (UniProt O75015); assay: SPR
[10] = target: cynomolgus CD64 (cynomolgus) (UniProt Q8SPW5); assay: SPR
[11] = target: human CD16a (human FcγRIIIA), V isoform (human) (UniProt P08637); assay: SPR
[12] = target: human NKp46 (Gln22-Asn255) (Homo sapiens) (UniProt O76036)
Target sequence in this assay (O76036 22-255): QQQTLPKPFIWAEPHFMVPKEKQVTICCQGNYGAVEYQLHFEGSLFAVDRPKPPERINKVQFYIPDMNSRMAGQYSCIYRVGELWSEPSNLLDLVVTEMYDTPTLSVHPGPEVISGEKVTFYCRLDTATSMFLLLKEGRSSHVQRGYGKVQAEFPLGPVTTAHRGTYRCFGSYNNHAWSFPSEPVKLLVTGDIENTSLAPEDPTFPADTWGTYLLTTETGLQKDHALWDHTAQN

[13] = target: recombinant human CD123 (Homo sapiens) (UniProt P26951); assay: SPR; Biacore T200, CM5 chip, 25 °C; CD123-NKCE (0.06 µg/ml) captured on anti-human Fc chip (human antibody capture kit); NKp46 or CD123 injected at 1.56 to 100 nM in HBS-EP+; 1:1 binding model with mass transport limitation; monovalent KD
[14] = target: human NKp46 (Gln22-Asn255) (Homo sapiens) (UniProt O76036); assay: as above
cynomolgus CD123 = assay: SPR; conditions: bispecific antibody
[15] = target: cynomolgus NKp46 (Gln17-Asn254) (cynomolgus) (UniProt Q95JB9); assay: SPR; conditions: bispecific antibody
[16] = target: human neonatal Fc receptor (human) (UniProt P55899); assay: SPR; conditions: bispecific antibody
Sequence of human neonatal Fc receptor (human) (P55899 24-365): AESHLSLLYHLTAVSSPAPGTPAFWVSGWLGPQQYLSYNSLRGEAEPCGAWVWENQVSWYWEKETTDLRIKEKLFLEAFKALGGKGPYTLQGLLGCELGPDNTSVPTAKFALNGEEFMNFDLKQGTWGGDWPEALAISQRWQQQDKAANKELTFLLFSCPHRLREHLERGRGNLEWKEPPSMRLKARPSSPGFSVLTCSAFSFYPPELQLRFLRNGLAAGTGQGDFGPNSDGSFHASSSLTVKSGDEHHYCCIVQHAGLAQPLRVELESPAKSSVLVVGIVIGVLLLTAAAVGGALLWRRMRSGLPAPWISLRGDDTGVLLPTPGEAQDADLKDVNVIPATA

Sequence of human CD16b (human FcγRIIIB) (human) (O75015 17-200): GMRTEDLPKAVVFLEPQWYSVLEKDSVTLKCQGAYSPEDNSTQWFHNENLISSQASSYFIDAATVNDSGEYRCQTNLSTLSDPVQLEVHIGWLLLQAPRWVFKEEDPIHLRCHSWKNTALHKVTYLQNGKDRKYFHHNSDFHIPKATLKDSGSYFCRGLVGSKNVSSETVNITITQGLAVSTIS
Sequence of human CD64 (human FcγRI) (human) (P12314 16-374): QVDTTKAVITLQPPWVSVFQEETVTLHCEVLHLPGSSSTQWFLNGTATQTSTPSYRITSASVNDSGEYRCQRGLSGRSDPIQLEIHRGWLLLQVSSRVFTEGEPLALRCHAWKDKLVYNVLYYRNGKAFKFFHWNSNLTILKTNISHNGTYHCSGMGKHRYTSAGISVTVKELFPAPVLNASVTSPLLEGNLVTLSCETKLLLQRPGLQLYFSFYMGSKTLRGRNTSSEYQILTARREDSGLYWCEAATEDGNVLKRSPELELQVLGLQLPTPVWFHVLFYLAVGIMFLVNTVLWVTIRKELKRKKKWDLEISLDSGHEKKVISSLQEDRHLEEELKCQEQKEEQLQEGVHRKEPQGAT
Sequence of cynomolgus CD16 (cynomolgus) (Q8SPW2 17-254): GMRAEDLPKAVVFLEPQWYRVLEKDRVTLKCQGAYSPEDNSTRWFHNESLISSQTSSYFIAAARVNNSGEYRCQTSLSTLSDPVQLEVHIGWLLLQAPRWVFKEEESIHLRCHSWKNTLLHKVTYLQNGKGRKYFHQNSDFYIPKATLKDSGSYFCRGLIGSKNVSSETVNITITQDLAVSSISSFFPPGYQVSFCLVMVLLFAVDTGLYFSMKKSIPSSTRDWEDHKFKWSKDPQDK
Sequence of cynomolgus FcRn (cynomolgus) (Q8SPV9 24-365): as the sequence (P55899 24-365) above, with N39D, E44Q, G99S, S189G, S190N, L217M, S269T, V319S, L332S, V335I counted along it
Sequence of human CD32a (human FcγRIIA) (human) (P12318 34-317): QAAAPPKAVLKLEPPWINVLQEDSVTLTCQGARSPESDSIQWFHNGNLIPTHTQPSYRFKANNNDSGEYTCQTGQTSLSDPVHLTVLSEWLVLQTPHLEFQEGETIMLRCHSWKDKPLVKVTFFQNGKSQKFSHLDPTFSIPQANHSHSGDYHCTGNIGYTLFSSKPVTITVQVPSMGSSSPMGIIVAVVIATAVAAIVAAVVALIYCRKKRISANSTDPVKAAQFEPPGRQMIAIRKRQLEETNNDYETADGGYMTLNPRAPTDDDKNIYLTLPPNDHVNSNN
Sequence of human CD16a (human FcγRIIIA), F isoform (human) (P08637 17-208): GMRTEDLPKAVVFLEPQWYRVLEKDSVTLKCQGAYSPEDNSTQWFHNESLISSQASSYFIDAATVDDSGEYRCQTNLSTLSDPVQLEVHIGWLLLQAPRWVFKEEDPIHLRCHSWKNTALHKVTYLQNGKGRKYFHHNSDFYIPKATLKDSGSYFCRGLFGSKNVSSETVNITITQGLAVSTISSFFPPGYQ
Sequence of human CD32b (human FcγRIIB) (human) (P31994 43-310): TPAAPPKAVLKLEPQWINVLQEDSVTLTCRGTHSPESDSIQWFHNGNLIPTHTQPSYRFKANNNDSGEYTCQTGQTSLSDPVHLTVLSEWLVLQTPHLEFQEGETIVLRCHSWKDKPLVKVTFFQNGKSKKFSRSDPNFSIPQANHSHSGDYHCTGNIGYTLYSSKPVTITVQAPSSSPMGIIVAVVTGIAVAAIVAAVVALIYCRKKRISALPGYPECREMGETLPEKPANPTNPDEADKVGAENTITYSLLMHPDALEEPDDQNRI
Sequence of human CD16a (human FcγRIIIA), V isoform (human) (P08637 17-208 F176V): as the sequence (P08637 17-208) above, with F160V counted along it
Sequence of cynomolgus NKp46 (Gln17-Asn254) (cynomolgus) (Q95JB9 17-254): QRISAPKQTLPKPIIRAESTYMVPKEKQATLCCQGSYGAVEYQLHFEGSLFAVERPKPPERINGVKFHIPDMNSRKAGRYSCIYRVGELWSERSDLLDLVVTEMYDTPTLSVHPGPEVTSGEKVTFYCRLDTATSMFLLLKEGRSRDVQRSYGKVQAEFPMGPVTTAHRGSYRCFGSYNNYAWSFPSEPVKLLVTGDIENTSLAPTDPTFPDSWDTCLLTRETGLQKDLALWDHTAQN

Human IgG1 control
Kd [1]: 0.2 nM | Kd [2]: 237 nM | Kd [3]: 4230 nM | Kd [4]: 1570 nM | Kd [5]: 6340 nM | Kd [6]: 2820 nM | Kd [7]: 2320 nM | Kd [8]: 580 nM | Kd [9]: 7540 nM | Kd [10]: 18 nM | Kd [11]: 575 nM

CD123-NKCE (trifunctional NKp46-CD16a-NK cell engager targeting CD123) (bispecific antibody)
NK cell-mediated cytotoxicity (Cr-51 release) against MOLM-13 cells with NK cells from healthy donors, geometric mean EC50; NKp46 and CD16a coengaged [12]: 0.0042 nM | NK cell-mediated cytotoxicity (Cr-51 release) against MOLM-13 cells with NK cells from healthy donors, mean observed maximum specific lysis; NKp46 and CD16a coengaged [12]: 71% | Kd [13]: 0.4 nM | Kd [14]: 16.6 nM

CD123-NKCE (trifunctional NKp46-CD16a-NK cell engager targeting CD123)
Kd ([1]; bispecific antibody): 0.2 nM | Kd ([2]; bispecific antibody): 282 nM | Kd ([3]; bispecific antibody): 3200 nM | Kd ([4]; bispecific antibody): 1220 nM | Kd (cynomolgus CD123): 1.23 nM | Kd [15]: 29 nM | Kd ([5]; bispecific antibody): 5180 nM | Kd ([6]; bispecific antibody): 2610 nM | Kd ([7]; bispecific antibody): 1890 nM | Kd [16]: 109 nM | Kd ([8]; bispecific antibody): 466 nM | Kd ([9]; bispecific antibody): 6690 nM | Kd ([10]; bispecific antibody): 12 nM | Kd ([11]; bispecific antibody): 462 nM
